Assay results reported in patent US20040053332A1.

Molecular target: ER-DEVD-Luc (mouse; firefly)
Test: cell-based or functional assay

Substance: caspase-3 (from UniProt P42574 29-277)
- cleavage of the 90 kDa fusion to a 60 kDa polypeptide (western blot, 293T cells treated with staurosporine): 50%
